Measured values published in US5869271A, “G-beta-gamma regulated phosphatidylinositol-3' kinase” (Onyx Pharmaceuticals, priority 1997, dated 1999).

Molecular target: free p120 PI3K catalytic subunit (Sus scrofa, UniProt O02697)
Experiment: PI3K assay on free recombinant p120 (Sf9-derived)
Assay type: biochemical, porcine
Description: Assays contained either 7 nM p101/p120 or 36 nM p120 alone (final concentrations) which were incubated with various reagents; 10 mM NaF and 30 μM AlCl3 (A/F) ; 1 μM Gβγ-subunits (βγ); 2 μM Gα-GDP; 100 nM wortmannin (W) or 50 μM tyrosine phosphorylated peptide (PY) for a total of 15 minutes (at 0° C.) prior to starting the assays by adding [γ^32 P]-ATP; [^32 P]-incorporated into [^32 P]-PtdIns(3,4,5) P3 was quantified. The data shown are means (n=2).
Purified aliquots of Sf9 -derived or pig neutrophil cytosol-derived PI3K were diluted in ice-cold 0.12M NaCl, 25 mM HEPES, 1 mM EGTA, 1 mM DTT, 1 mg-ml^-1 BSA, 1% betaine, 0.02%, w/v, Tween-20, pH 7.4, 0° C. to an appropriate extent, then 5 μl aliquots were stored on ice until assayed. […] 30 μl of a mixture of phospholipids with or without Gβγs and/or Gαs (either GDP-bound or activated) was added to the 5 μl fractions, or 10 μl of beads, and mixed. After 10 minutes on ice, 5-10 μl of last wash buffer, supplemented with MgCl2 to give a final concentration in the extant assay volume of 3.5 mM, was added and mixed. Six minutes later, 5 μl of last wash buffer was added (to give a final assay volume of 50 μl) containing [^32 ]-ATP (typically 10 μCi assay^-1, Amersham, PB10168) and 3.5 mM MgCl2, tubes were mixed and transferred to a 30° C. water bath. […]

free p120 PI3K catalytic subunit, sequence (O02697 whole entry): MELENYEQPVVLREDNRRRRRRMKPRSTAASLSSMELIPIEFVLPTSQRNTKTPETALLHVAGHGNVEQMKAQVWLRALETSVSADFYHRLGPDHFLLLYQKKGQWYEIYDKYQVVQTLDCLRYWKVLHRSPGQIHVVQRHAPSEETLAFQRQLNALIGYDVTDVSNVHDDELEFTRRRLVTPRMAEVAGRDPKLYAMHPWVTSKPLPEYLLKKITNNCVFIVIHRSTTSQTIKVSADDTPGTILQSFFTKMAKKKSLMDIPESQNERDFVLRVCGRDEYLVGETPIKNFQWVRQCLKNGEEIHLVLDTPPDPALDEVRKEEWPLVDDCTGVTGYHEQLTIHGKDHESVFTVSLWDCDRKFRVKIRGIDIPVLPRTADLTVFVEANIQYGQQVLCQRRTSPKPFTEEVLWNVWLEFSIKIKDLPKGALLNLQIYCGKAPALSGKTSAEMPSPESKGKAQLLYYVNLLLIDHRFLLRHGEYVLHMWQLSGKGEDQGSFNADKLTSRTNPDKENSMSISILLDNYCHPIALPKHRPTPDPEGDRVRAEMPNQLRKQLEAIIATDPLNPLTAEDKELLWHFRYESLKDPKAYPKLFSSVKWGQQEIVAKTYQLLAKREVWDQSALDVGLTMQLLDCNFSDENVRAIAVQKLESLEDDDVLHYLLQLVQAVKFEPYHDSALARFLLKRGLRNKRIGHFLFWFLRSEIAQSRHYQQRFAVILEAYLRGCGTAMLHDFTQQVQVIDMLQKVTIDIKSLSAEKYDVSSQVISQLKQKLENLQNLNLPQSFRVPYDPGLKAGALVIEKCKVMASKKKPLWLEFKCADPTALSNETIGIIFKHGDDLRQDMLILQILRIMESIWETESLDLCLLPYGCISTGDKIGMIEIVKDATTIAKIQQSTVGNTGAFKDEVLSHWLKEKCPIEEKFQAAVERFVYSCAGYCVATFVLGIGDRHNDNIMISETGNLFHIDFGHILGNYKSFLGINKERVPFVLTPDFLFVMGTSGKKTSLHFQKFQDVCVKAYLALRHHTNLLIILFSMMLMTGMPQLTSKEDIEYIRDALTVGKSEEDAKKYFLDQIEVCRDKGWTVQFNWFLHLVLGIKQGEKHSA

B1: p120: catalytic subunit of the G protein-regulated PI3K; the b332 result is for the form after complete thrombin cleavage (protein)
chain: MELENYEQPVVLREDNRRRRRRMKPRSTAASLSSMELIPIEFVLATSQRNTKTPETALLHVAGHGNVEKMKAQVLLRALETSVSWDFYHRFGPDHFLLVFQKKGEWYEIYDKYQVVQTLDCLRYWEVLHRSPGQIHVVQRHAPSEETLAFQRQLNALIGYDVTDVSNVHDDELEFTRRRLVTPRMAEVAGRDPKLYAMHPWVTSKPLPEYLLKKITNNCVFIVIHRSTTSQTIKVSADDTPGTILQSFFTKMAKKKSLMDIPESQNERDFVLRVCGRDEYLVGETPIKNFQWVRQCLKNGEEIHLVLDTPPDPALDEVRKEEWPLVDDCTGVTGYHEQLTIHGKDHESVFTVSLWDCDRKFRVKIRGIDIPVLPRTADLTVFVEANIQYGQQVLCQRRTSPKPFTEEVLWNVWLEFSIKIKDLPKGALLNLQIYCGKAPALSGKTSAEMPSPESKGKAQLLYYVNLLLIDHRFLLRHGEYVLHMWQLSGKGEDQGSFNADKLTSGTNPDKEDSMSISILLDNYCHPIALPKHRPTPDPEGDRVRAEMPNQLRKQLEAIIATDPLNPLTAEDKELLWHFRYESLKDPKAYPKLFSSVKWGQQEIVAKTYQLLAKREVWDQSALDVGLTMQLLDCNFSDENVRAIAVQKLESLEDDDVLHYLLQLVQAVKFEPYHDSALARFLLKRGLRNKRIGHFLFWFLRSEIAQSRHYQQRFAVILEAYLRGCGTAMLHDFTQQVQVIDMLQKVTIDIKSLSAEKYDVSSQVISQLKQKLENLQNLNLPQSFRVPYDPGLKAGALVIEKCKVMASKKKPLWLEFKCADPTALSNETIGIIFKHGDDLRQDMLILQILRIMESIWETESLDLCLLPYGCISTGDKIGMIEIVKDATTIAKIQQSTVGNTGAFKDEVLSHWLKEKCPIEEKFQAAVERFVYSCAGYCVATFVLGIGDRHNDNIMISETGNLFHIDFGHILGNYKSFLGINKERVPFVLTPDFLFVMGTSGKKTSLHFQKFQDVCVKAYLALRHHTNLLIILFSMMLMTGMPQLTSKEDIEYIRDALTVGKSEEDAKKYFLDQIEVCRDKGWTVQFNWFLHLVLGIKQGEKHPA
- reduction of p120 PI3K catalytic activity by removal of about 40 amino terminal residues (thrombin cleavage): 20-30%
